In US4981788A, “Novel acetylpolyamine amidohydrolase” (Kyowa Hakko Kogyo Co., Ltd., priority 1987, dated 1991):

B1: acetylpolyamine amidohydrolase (the present enzyme, partially purified product) (Mycoplana ramosa) (protein)
chain: MRVIFSEDHKLRNAKTELYGGELVPPFEAPFRAEWILAAVKEAGFDDVVAPARHGLETVLKVHDAGYLNFLETAWDRWKAAGYKGEAIATSFPVRRTSPRIPTDIEGQIGYYCNAAETAISPGTWEAALSSMASAIDGADLIAAGHKAAFSLCRPPGHHAGIDMFGGYCFINNAAVAAQRLLDKGAKKIAILDVDFHHGNGTQDIFYERGDVFFASLHGDPAEAFPHFLGYAEETGKGAGAGTTANYPMGRGTPYSVWGEALTDSLKRIAAFGAEAIVVSLGVDTFEQDPISFFKLTSPDYITMGRTIAASGVPLLVVMEGGYGVPEIGLNVANVLKGVAG
notes: novel acetylpolyamine amidohydrolase of the present invention accumulated within the grown cells; made in house; host or cells: Mycoplana (natural producer; cells grown in culture)
B2: acetylpolyamine amidohydrolase (the present enzyme, product purified to homogeneity) (Mycoplana ramosa) (protein)
chain: B1 chain
notes: novel acetylpolyamine amidohydrolase of the present invention accumulated within the grown cells; made in house; host or cells: Mycoplana (natural producer)

Experiments:
Assay type in all cases: biochemical, Mycoplana bullata
[1] = substrate: CC(=O)NCCCCCN; assay: Enzyme activity on acetylpolyamine substrates, partially purified product (substrate specificity, optimum pH/temperature, Km); settings: other: pH 7.0, Lineweaver-Burk plot
Experimental: (§1) Activity of the present enzyme (partially purified products) is measured according to the following procedure. That is, 0.1 ml of an enzyme solution is added to a reagent solution consisting of 1.5 ml of 0.1 M phosphate buffer (pH 7.0), 0.05 ml of 50 mM acetylpolyamine, 0.4 U of putrescine oxidase (when acetylputrescine, acetylcadaverine or acetylspermidine is used as substrate) or polyamine oxidase (when acetylspermidine or acetylspermine is used as substrate), 0.5 ml of 2.4 mM 4-aminoantipyrine, 0.5 ml of 42 mM phenol and 20 U of peroxidase. The mixture is incubated at 37° C., and the absorbance of quinoneimine pigment formed at 500 nm is measured.
(§2) In terms of the enzyme activity, the amount of enzyme that can hydrolyze 1 μmole of a substrate in one minute is defined as one unit (1 U).
(§3) The relative activities of acetylpolyamine amidohydrolases against various type of acetylpolyamine, defining the activities against acetylputrescine as 100 under a condition of pH 7.0, are as shown in Table 1 below.
(§4) Enzyme activity was measured at different pH levels ranging from 6 to 10 by using bis-Tris propane buffer solutions. The optimum pH was 9 for acetylputrescine and acetylcadaverine, and 8 for N^1 -acetylspermidine, N^8 -acetylspermidine and acetylspermine, as shown in FIG. 1.
(§5) The optimum working temperature for the present enzyme was about 50° C., when the relative activity was determined, using acetylputrescine as substrate, as shown in FIG. 4. The optimum temperatures for the other acetylpolyamine amidohydrolases were 30° to 40° C. This clearly distinguishes the present enzyme from the known enzymes.
(§6) Km values of the present enzyme and the other known enzymes for various types of acetylpolyamine at pH 7.0 were determined from the Line weaver-Burk plot [refer to J. Am. Chem. Soc., 56, 658 (1934)].

[2] = substrate: CC(=O)NCCCNCCCCN; assay: as above; settings: other: pH 7.0, Lineweaver-Burk plot
Experimental: as §1, §2, §3, §4, §5, §6

[3] = substrate: CC(=O)NCCCCNCCCN; assay: as above; settings: other: pH 7.0, Lineweaver-Burk plot
Experimental: as §1, §2, §3, §4, §5, §6

[4] = substrate: CC(=O)NCCCCN; assay: Enzyme activity on acetylpolyamine substrates, product purified to homogeneity (Method 2 / Method 3); settings: other: pH 9.0, Lineweaver-Burk plot
Source text: (§7) [Method 2] (Assay when acetylputrescine, acetylcadaverine, N^1 -acetylspermidine and N^8 -acetylspermidine are used as substrate:)
(§8) The acetylpolyamine can be hydrolyzed by the acetylpolyamine amidohydrolase, as described in [Method 1], and the corresponding free polyamine thus formed is then oxidized by putrescine oxidase. Putrescine oxidase derived from Micrococcus rubens is known to have an activity upon putrescine, cadaverine and spermidine [Adachi, et al., Agric. Biol. Chem, 30, 1202 (1966)]. […] The actual analytical procedure is as described below.
(§9) The above reagents, (b) through (h), were put in a cuvette (d: 1.0 cm) and the mixture was preincubated at 37° C. for 2 minutes. The substrate solution (a) was then added, and the resulting mixture was incubated at 37° C. Absorbance at 500 nm was measured over a period of 3 to 5 minutes, and the change in absorbance per minute (ΔODsample) was determined from the linear portion of the plotted curve. For control, the same procedure as above was carried out, using distilled water as reference.
(§10) One unit of acetylpolyamine amidohydrolase is defined as its amount necessary to hydrolyze 1 μmole of acetylputrescine at 37° C. for one minute (or the amount necessary to form 0.5 μmole of quinoneimine pigment formed in the method for measuring the enzyme activity described above).
(§11) [Method 3] (Assay when acetylspermine is used as substrate:)
(§12) Acetylspermine is hydrolyzed by the action of acetylpolyamine amidohydrolase into free form of spermine. The free form of spermine can be oxidized by a polyamine oxidase derived from Aspergillus terreus to produce hydrogen peroxide. […] Thus, the enzyme activity can be measured by quantitative determination of the hydrogen peroxide according to the method described above. […]
(§13) Reagents (b) through (d) given in item (1) were put in a test tube and the mixture was preincubated at 37° C. for 2 minutes. […] A sample solution (200 μl), taken from the eluate containing free form of spermine, was mixed in a cuvette with reagents (a) through (e) given in item (2) above, the mixture was incubated at 37° C. for 10 minutes, and the absorbance at 755 nm was measured. […]
(§14) The concentration of free form of spermine in the reaction mixture can be determined from a calibration curve previously prepared on the basis of aqueous soluitons of free form of spermine with different concentrations. […]
(§15) The activities upon acetylputrescine, acetylcadaverine, N^1 -acetylspermidine and N^8 -acetylspermidine were measured by [Method 2] in a phosphate buffer (pH 9.0) at a substrate concentration of 0.833 mM, and the activity upon acetyl-spermine was measured by [Method 3] under the same conditions. […] Km values, determined from the Lineweaver-Burk plot, are also listed in the same table. […]

[5] = substrate: CC(=O)NCCCCCN; assay: as above; settings: other: pH 9.0, Lineweaver-Burk plot
Source text: as §7, §8, §9, §10, §11, §12, §13, §14, §15

[6] = substrate: CC(=O)NCCCNCCCCN; assay: as above; settings: other: pH 9.0, Lineweaver-Burk plot
Source text: as §7, §8, §9, §10, §11, §12, §13, §14, §15

[7] = substrate: CC(=O)NCCCCNCCCN; assay: as above; settings: other: pH 9.0, Lineweaver-Burk plot
Source text: as §7, §8, §9, §10, §11, §12, §13, §14, §15

| Protein | Km [1] | Km [2] | Km [3] | Km [4] | Km [5] | Km [6] | Km [7] |
| --- | --- | --- | --- | --- | --- | --- | --- |
| B1 | 130 µM | 270 µM | 560 µM |  |  |  |  |
| B2 |  |  |  | 220 µM | 50 µM | 130 µM | 310 µM |
